In general, stoichiometry N refers to a count of units in the complex or per binding partner.

One substance from paper PMC9095878 can be followed below.

This test addresses N-terminal domain of mouse gasdermin-A3 released by TEV cleavage (mGSDMA3^Nterm) (mouse) (UniProt Q5Y4Y6). In words: atomic force microscopy; supported lipid membranes (E. coli polar lipid extract) on mica incubated 3 h at 37 °C with 1.5 µM mGSDMA3 pre-cleaved with 0.4 µM TEV, rinsed, imaged by contact mode or FD-based AFM at room temperature in 50 mM NaCl, 0.1 mM EDTA, 0.1 mM TCEP, 20 mM Hepes, pH 7.4; subunits of ring-shaped oligomers counted from rotational power spectra.

Several values for one entry are separate records, joined by “and”; a condition that tells them apart may be missing. Equal values may be shown once.

As for “N-terminal domain of mouse gasdermin-A3 released by TEV cleavage (mGSDMA3^Nterm) (from UniProt Q5Y4Y6 1-237) (domain or fragment)”, the stoichiometry N was 18 to 36 (2×) and 30.
